Reference: publication PMC12111036

Key:
[1] = target: Tyrosine kinase receptor B (TrkB) (not stated (human SH-SY5Y or mouse HT22 cells cultured)) (UniProt Q16620); assay: co-IP; control cells without added BDNF; native lysis; IP of 100 μL whole-cell lysate with anti-TrkB or anti-p75 antibody and protein A&G beads at 4 °C; Western blot with anti-BDNF antibody; band intensity in percent of the control WCL band
[2] = target: p75 receptor (not stated (human SH-SY5Y or mouse HT22 cells cultured)) (UniProt P08138); assay: as above
[3] = target: Amyloid-β protein 1–42 fibrils (Aβ42F) (human) (UniProt P05067); assay: ELISA; indirect ELISA; Aβ42 species or HSA (2.0 μM) coated on 96-well plates at 4 °C for 12 h, blocked with 5% nonfat dry milk in TBS; BDNF 20 pg/mL added, 37 °C, 24 h; bound BDNF detected with anti-BDNF antibody; binding rate in percent of the BDNF added; also run with CA/EGCG (50 μM) or IG3/BCP (2.0 μM)
[4] = target: Amyloid-β protein 1–42 oligomers (Aβ42O) (human) (UniProt P05067); assay: as above
[5] = target: Amyloid-β protein 1–42 protofibrils (Aβ42P) (human) (UniProt P05067); assay: as above
[6] = target: Amyloid-β protein 1–42 monomers (Aβ42M) (human) (UniProt P05067); assay: as above
[7] = target: Tyrosine kinase receptor B (TrkB) (not stated (human SH-SY5Y or mouse HT22 cells cultured)) (UniProt Q16620); assay: co-IP; cells incubated 48 h with BDNF 1.0 nM, alone or with Aβ42M/Aβ42O 0.2 μM and/or CA/EGCG 100 μM or IG3/BCP 2.0 μM; native lysis; IP with anti-TrkB or anti-p75 antibody and protein A&G beads at 4 °C; Western blot with anti-BDNF antibody; band intensity in percent of the control WCL band
[8] = target: p75 receptor (not stated (human SH-SY5Y or mouse HT22 cells cultured)) (UniProt P08138); assay: as above

Sequence of p75 receptor (not stated (human SH-SY5Y or mouse HT22 cells cultured)) (P08138 29-427): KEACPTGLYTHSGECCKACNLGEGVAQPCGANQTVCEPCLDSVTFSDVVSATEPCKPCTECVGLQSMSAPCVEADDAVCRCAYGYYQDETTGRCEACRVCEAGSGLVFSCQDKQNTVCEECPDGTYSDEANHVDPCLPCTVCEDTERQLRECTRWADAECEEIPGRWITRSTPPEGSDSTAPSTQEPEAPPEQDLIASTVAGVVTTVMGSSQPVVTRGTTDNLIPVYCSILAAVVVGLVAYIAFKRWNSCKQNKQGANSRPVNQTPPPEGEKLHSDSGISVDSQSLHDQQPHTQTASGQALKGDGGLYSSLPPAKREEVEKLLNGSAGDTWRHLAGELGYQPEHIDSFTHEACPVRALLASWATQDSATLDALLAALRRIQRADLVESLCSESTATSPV

| BDNF on Co-IP beads, percent of control WCL (no BDNF added) [1] [%] | BDNF on Co-IP beads, percent of control WCL (no BDNF added) [2] [%] | binding rate [3] [%] | binding rate [4] [%] | binding rate [5] [%] | binding rate [6] [%] | BDNF on Co-IP beads, percent of control WCL (BDNF added) [7] [%] | BDNF on Co-IP beads, percent of control WCL (BDNF with Aβ42M and CA/EGCG) [7] [%] | BDNF on Co-IP beads, percent of control WCL (BDNF with Aβ42M and IG3/BCP) [7] [%] | BDNF on Co-IP beads, percent of control WCL (BDNF with Aβ42M) [7] [%] | BDNF on Co-IP beads, percent of control WCL (BDNF with Aβ42O and CA/EGCG) [7] [%] | BDNF on Co-IP beads, percent of control WCL (BDNF with Aβ42O and IG3/BCP) [7] [%] | BDNF on Co-IP beads, percent of control WCL (BDNF with Aβ42O) [7] [%] | BDNF on Co-IP beads, percent of control WCL (BDNF added) [8] [%] | BDNF on Co-IP beads, percent of control WCL (BDNF with Aβ42M and CA/EGCG) [8] [%] | BDNF on Co-IP beads, percent of control WCL (BDNF with Aβ42M and IG3/BCP) [8] [%] | BDNF on Co-IP beads, percent of control WCL (BDNF with Aβ42M) [8] [%] | BDNF on Co-IP beads, percent of control WCL (BDNF with Aβ42O and CA/EGCG) [8] [%] | BDNF on Co-IP beads, percent of control WCL (BDNF with Aβ42O and IG3/BCP) [8] [%] | BDNF on Co-IP beads, percent of control WCL (BDNF with Aβ42O) [8] [%] | Substance |
| --- | --- | --- | --- | --- | --- | --- | --- | --- | --- | --- | --- | --- | --- | --- | --- | --- | --- | --- | --- | --- |
| 44.1 | 31.9 |  |  |  |  |  |  |  |  |  |  |  |  |  |  |  |  |  |  | Endogenous BDNF of the control cells (ligand) |
|  |  | < 5 | > 10 | < 5 | > 10 | 85 | 89.3 | 92 | 88.3 | 72.2 | 73.4 | 58.1 | 70 | 73.4 | 83.2 | 71.9 | 62.1 | 61.7 | 64.3 | Human brain-derived neurotrophic factor (BDNF) (ligand) |
